Settings: Bacillus amyloliquefaciens; pH 6.3; 25 °C; Urea; Fluorescence; MES 50 mM; NaCl 0.15 M; reversible: yes; whole UniProt chain shown

B1: Ribonuclease wild type, P00648 (protein)
chain: MMKMEGIALKKRLSWISVCLLVLVSAAGMLFSTAAKTETSSHKAHTEAQVINTFDGVADYLQTYHKLPDNYITKSEAQALGWVASKGNLADVAPGKSIGGDIFSNREGKLPGKSGRTWREADINYTSGFRNSDRILYSSDWLIYKTTDHYQTFTKIR
With B1 the denaturant m value was 1.92 kcal/mol/M, the “denaturant midpoint (higher = more stable)” value was 4.58 M and the unfolding free energy was 8.79 kcal/mol.
